For orientation: Kd means the free concentration of one partner at which half of the binding sites on the other are occupied at equilibrium, for simple one-to-one binding. A low value points to higher affinity.

These results are taken from US20030068675, “Position dependent recognition of GNN nucleotide triplets by zinc fingers” (published 2003).

What all share (assay): EMSA
What all share (details): tags: MBP fusion
(Mobility shift assays separate free from complexed probe on a gel.)

Data set [1] has as its target T1, ZFP SBS#711 (synthetic).
T1 chain: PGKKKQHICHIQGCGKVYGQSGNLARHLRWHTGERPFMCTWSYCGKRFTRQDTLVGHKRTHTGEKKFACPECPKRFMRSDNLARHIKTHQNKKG
In outline: (§1)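 Purified ZFP was titrated against labeled double-stranded target (1 nM or lower, at least 10-fold below expected Kd) carrying the natural binding site with flanks. Binding buffer was 10 mM Tris pH 7.5, 100 mM KCl, 1 mM MgCl2, 0.1 mM ZnCl2, 5 mM DTT, 10% glycerol, 0.02% BSA, with equilibration for at least 45 min. Bound and free target were separated on a 10% polyacrylamide gel.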

Data set [2] addresses T2, ZFP SBS#709 (synthetic).
T2 chain: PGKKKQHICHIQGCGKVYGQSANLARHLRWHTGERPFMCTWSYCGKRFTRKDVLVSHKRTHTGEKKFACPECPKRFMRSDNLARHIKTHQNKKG
In outline: as §1

In data set [3] the target is ZFP SBS#710 (synthetic). In outline: as §1
Chain of ZFP SBS#710 (synthetic) (chain, as listed by the source): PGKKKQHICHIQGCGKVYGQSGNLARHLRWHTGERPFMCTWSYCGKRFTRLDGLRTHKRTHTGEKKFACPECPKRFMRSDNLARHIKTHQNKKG
Data set [4] concerns the target T3, ZFP SBS#601 (synthetic).
T3 chain: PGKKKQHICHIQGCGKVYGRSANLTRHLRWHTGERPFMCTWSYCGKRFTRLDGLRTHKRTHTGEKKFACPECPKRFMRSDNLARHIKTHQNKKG
In outline:
as §1

For data set [5], the target named is T4, ZFP SBS#708 (synthetic).
T4 chain: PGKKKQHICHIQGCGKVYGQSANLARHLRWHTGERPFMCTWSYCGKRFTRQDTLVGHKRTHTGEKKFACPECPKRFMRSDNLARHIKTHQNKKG
In outline:
as §1

The target in data set [6] is T5, ZFP SBS#602 (synthetic).
T5 chain: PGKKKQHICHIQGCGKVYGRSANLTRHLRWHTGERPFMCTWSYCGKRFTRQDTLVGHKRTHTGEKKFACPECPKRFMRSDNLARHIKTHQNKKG
In outline:
as §1

The target in data set [7] is ZFP SBS#603 (synthetic). In outline: as §1
Chain of ZFP SBS#603 (synthetic) (chain, as listed by the source): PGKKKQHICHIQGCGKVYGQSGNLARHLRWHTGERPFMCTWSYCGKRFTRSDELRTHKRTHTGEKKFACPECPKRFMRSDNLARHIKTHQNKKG
The target in data set [8] is ZFP SBS#600 (synthetic). In outline: as §1
Chain of ZFP SBS#600 (synthetic) (chain, as listed by the source): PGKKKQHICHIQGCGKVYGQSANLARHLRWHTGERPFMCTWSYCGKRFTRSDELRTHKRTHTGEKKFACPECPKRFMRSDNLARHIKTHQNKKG
For data set [9], the target named is T6, ZFP SBS#698 (synthetic).
T6 chain: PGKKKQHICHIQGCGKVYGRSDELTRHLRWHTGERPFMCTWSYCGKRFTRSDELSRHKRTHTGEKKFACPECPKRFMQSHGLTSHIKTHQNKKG
In outline: as §1

Data set [10] deals with T7, ZFP SBS#697 (synthetic).
T7 chain: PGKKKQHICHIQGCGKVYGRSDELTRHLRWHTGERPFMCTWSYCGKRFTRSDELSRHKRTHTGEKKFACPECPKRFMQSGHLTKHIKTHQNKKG
In outline: as §1

Data set [11] has as its target T8, ZFP SBS#705 (synthetic, UniProt P08047).
T8 chain: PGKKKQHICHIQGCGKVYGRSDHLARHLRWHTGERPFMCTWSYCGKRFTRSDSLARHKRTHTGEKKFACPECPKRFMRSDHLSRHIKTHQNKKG
In outline: as §1

Data set [12] concerns the target T9, ZFP SBS#706 (synthetic, UniProt P08047).
T9 chain: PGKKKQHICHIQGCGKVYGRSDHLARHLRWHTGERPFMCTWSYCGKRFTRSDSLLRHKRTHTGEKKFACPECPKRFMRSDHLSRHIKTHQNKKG
In outline:
as §1

Data set [13] deals with ZFP SBS#661 (synthetic). In outline:
as §1

The target of data set [14] is T10, ZFP SBS#660 (synthetic).
T10 chain: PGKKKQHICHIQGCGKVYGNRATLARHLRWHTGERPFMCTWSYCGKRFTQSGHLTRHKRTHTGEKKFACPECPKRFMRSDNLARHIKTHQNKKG
In outline:
as §1

In data set [15] the target is ZFP SBS#656 (synthetic). In outline:
as §1

For data set [16], the target named is ZFP SBS#654 (synthetic). In outline:
as §1

Data set [17] deals with T11, ZFP SBS#657 (synthetic).
T11 chain: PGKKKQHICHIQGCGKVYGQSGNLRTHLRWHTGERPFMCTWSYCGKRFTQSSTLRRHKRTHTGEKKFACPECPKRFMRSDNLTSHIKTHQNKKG
In outline:
as §1

The target in data set [18] is T12, ZFP SBS#695 (synthetic).
T12 chain: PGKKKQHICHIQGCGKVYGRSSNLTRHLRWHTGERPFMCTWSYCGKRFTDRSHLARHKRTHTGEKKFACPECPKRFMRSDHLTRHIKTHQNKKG
In outline:
as §1

The target in data set [19] is T13, ZFP SBS#702 (synthetic).
T13 chain: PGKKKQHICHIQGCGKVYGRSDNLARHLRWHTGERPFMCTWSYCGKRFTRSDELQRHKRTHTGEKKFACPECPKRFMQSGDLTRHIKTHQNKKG
In outline: as §1

Data set [20] has as its target ZFP SBS#701 (synthetic). In outline: as §1
Data set [21] has as its target T14, ZFP SBS#714 (synthetic).
T14 chain: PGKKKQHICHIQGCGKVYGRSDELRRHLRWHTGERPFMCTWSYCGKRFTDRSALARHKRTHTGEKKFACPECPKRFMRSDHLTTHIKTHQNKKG
In outline:
as §1

Data set [22] has as its target T15, ZFP SBS#715 (synthetic).
T15 chain: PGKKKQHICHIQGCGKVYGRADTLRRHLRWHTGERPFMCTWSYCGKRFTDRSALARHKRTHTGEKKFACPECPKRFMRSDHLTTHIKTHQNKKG
In outline: as §1

Data set [23] concerns the target T16, ZFP SBS#666 (synthetic).
T16 chain: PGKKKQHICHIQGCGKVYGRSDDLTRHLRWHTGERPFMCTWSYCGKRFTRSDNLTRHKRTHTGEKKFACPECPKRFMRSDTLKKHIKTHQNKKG
In outline: as §1

For data set [24], the target named is T17, ZFP SBS#665 (synthetic).
T17 chain: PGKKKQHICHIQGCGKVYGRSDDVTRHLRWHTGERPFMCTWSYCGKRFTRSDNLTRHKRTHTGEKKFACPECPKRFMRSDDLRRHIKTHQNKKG
In outline:
as §1

Data set [25] deals with T18, ZFP SBS#718 (synthetic).
T18 chain: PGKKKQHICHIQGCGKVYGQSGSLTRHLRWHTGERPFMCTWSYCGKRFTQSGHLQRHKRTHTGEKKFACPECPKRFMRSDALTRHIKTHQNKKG
In outline:
as §1

The target in data set [26] is ZFP SBS#717 (synthetic). In outline: as §1
The target of data set [27] is T19, ZFP SBS#716 (synthetic).
T19 chain: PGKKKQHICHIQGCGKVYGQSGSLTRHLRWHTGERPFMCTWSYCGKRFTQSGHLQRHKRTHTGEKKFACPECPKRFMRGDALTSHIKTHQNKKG
In outline:
as §1

Data set [28] addresses ZFP SBS#425 (synthetic). In outline: as §1
In data set [29] the target is ZFP SBS#424 (synthetic). In outline:
as §1

The target in data set [30] is ZFP SBS#426 (synthetic). In outline:
as §1

For data set [31], the target named is ZFP SBS#565 (synthetic). In outline:
as §1

The target of data set [32] is T20, ZFP SBS#694 (synthetic).
T20 chain: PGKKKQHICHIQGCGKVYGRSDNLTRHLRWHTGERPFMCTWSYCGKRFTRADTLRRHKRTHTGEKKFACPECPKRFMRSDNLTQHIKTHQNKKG
In outline:
as §1

Data set [33] deals with T21, ZFP SBS#692 (synthetic, UniProt P08047).
T21 chain: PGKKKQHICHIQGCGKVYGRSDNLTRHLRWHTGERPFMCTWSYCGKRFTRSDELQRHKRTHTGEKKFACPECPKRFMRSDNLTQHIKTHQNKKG
In outline: as §1

Data set [34] deals with T22, ZFP SBS#689 (synthetic).
T22 chain: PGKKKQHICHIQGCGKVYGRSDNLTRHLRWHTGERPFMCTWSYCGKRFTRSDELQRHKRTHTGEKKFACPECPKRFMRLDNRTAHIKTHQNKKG
In outline:
as §1

Data set [35] addresses T23, ZFP SBS#693 (synthetic).
T23 chain: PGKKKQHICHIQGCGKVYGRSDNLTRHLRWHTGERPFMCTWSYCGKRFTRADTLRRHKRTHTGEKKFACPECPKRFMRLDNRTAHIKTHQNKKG
In outline:
as §1

Data set [36] has as its target ZFP SBS#699 (synthetic). In outline:
as §1

In data set [37] the target is ZFP SBS#700 (synthetic). In outline: as §1
Chain of ZFP SBS#700 (synthetic) (chain, as listed by the source): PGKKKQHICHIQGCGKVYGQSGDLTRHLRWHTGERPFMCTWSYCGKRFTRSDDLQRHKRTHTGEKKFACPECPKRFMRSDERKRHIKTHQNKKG

Chain of ZFP SBS#656 (synthetic) (chain, as listed by the source): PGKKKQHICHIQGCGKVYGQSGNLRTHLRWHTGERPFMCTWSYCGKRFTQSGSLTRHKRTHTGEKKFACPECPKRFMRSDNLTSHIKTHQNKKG
Chain of ZFP SBS#565 (synthetic) (chain, as listed by the source): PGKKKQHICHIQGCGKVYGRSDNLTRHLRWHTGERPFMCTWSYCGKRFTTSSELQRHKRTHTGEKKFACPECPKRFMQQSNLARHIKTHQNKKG
Chain of ZFP SBS#701 (synthetic) (chain, as listed by the source): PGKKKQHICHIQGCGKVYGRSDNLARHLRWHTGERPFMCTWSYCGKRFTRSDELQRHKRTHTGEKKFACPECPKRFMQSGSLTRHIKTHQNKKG
Chain of ZFP SBS#661 (synthetic) (chain, as listed by the source): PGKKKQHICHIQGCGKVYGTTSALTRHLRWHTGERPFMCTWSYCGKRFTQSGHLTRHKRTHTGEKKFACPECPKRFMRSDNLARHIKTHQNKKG
Chain of ZFP SBS#424 (synthetic) (chain, as listed by the source): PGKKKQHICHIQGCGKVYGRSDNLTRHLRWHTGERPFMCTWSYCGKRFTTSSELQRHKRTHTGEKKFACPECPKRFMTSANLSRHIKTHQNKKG
Chain of ZFP SBS#426 (synthetic) (chain, as listed by the source): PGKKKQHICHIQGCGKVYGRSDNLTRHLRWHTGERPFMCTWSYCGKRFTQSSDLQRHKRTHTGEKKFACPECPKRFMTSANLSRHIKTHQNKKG
Chain of ZFP SBS#699 (synthetic) (chain, as listed by the source): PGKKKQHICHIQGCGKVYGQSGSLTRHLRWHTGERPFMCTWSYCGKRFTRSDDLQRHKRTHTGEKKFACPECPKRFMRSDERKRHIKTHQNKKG

B1: GAGTCGGAA (dsDNA)
DNA 1: GAGTCGGAA
DNA 2: TTCCGACTC
Turning to B1, the Kd amounted to 400 nM in data set [1]; 400 nM in data set [2]; 400 nM in data set [3]; 607 nM in data set [4]; 300 nM in [5]; 617 nM in data set [6]. Further, the Kd in [7] stood at 167 nM; in data set [8], 207 nM.

B2: TGAGCGGCGG (dsDNA)
DNA 1: TGAGCGGCGG
DNA 2: CCGCCGCTCA
As for B2, the dissociation constant (Kd) in data set [9] is 300 nM; in [10] it was 200 nM.

B3: GGGGTGGGGC (dsDNA)
DNA 1: GGGGTGGGGC
DNA 2: GCCCCACCCC
Consider B3, for which the figures for the Kd in [11] and in data set [12] were 0.01 nM and 0.05 nM, respectively.

B4: GAGGGAGTTC (dsDNA)
DNA 1: GAGGGAGTTC
DNA 2: GAACTCCCTC
As to B4, the dissociation constant (Kd) was determined as 1.73 nM in data set [13] and 8.25 nM in [14].

B5: TAGGCATAAA (dsDNA)
DNA 1: TAGGCATAAA
DNA 2: TTTATGCCTA
B5: the Kd in [15] amounted to 540 nM; in [16], 105 nM; in data set [17], 300 nM.

B6: GGGGGCGAGC (dsDNA)
DNA 1: GGGGGCGAGC
DNA 2: GCTCGCCCCC
On to B6, for which the Kd in [18] was found to be 850 nM.

B7: GCAGCGGAGC (dsDNA)
DNA 1: GCAGCGGAGC
DNA 2: GCTCCGCTGC
On to B7, for which the values for the Kd in data set [19] and in data set [20] were 73.5 nM and 50.5 nM, respectively.

B8: TGGGTCGCGG (dsDNA)
DNA 1: TGGGTCGCGG
DNA 2: CCGCGACCCA
Turning to B8, the results for the Kd in data set [21] and in [22] were 200 nM and 0.46 nM, respectively.

B9: GCGGAGGCGC (dsDNA)
DNA 1: GCGGAGGCGC
DNA 2: GCGCCTCCGC
As for B9, the Kd was determined as 0.5 nM in [23] and 12.5 nM in [24].

B10: TTGGGAGCAC (dsDNA)
DNA 1: TTGGGAGCAC
DNA 2: GTGCTCCCAA
On to B10, for which the figures for the equilibrium dissociation constant (Kd) in [25], in data set [26] and in data set [27] were 108 nM, 150 nM and 200 nM, respectively.

B11: GATGCTGAG (dsDNA)
DNA 1: GATGCTGAG
DNA 2: CTCAGCATC
With B11, the Kd in data set [28] was 25 nM; in data set [29] it was 100 nM; in [30], 5.5 nM; in data set [31], 100 nM.

B12: AAGGCGGAGA (dsDNA)
DNA 1: AAGGCGGAGA
DNA 2: TCTCCGCCTT
On to B12, for which the dissociation constant (Kd) in data set [32] worked out at 28.5 nM; in [33], 51 nM; in [34] it was 82.5 nM; in data set [35], 95 nM.

B13: GCGGCGGCAG (dsDNA)
DNA 1: GCGGCGGCAG
DNA 2: CTGCCGCCGC
On to B13, for which the Kd in data set [36] is 21.5 nM; in data set [37], 45 nM.
